Laboratory results from patent US20130251724A1 (GlaxoSmithKline, published 2013).
Where “and” joins values, the source holds several entries; their conditions need not be identical. Equal entries are not always repeated. Where two headings read alike, the source gives them in different places.

Tests used:
[1] = biological target: T1, Cynomolgus OSM (cynomolgus, UniProt A0A2K5VPC6 26-221); assay: BIAcore kinetics
T1 construct: also called Cyno OSM; cynomolgus macaque OSM
T1 sequence: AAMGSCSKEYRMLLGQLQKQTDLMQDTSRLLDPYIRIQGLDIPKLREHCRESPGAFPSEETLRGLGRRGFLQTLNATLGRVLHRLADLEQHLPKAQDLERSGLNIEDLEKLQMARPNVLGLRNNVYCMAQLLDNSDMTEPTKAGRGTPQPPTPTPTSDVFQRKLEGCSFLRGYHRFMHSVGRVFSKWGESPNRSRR

[2] = biological target: T2, Human OSM (human, UniProt P13725 26-221); assay: BIAcore kinetics
T2 construct: Recombinant human OSM; also called hOSM; human Oncostatin M
T2 sequence: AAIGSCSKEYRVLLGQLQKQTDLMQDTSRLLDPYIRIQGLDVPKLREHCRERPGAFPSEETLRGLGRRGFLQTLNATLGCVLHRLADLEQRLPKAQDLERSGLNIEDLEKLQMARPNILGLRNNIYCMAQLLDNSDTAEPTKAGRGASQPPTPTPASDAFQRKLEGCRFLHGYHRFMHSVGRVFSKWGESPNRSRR

[3] = biological target: T1, Cynomolgus OSM; assay: human gp130 ELISA, inhibition of OSM binding to gp130
[4] = biological target: T2, Human OSM; assay: as above
[5] = biological target: T1, Cynomolgus OSM; assay: as above; remark: listed apart in the source
[6] = biological target: T2, Human OSM; assay: as above; remark: listed apart in the source
[7] = biological target: T1, Cynomolgus OSM; assay: cell-based or functional assay
[8] = biological target: T2, Human OSM; assay: cell-based or functional assay
[9] = biological target: T3, Endogenous human OSM (neutrophil-derived) (human, UniProt P13725 26-221, limits assumed); assay: gp130 ELISA with endogenous neutrophil-derived human OSM
T3 construct: Native OSM generated from GM-CSF stimulation of healthy human neutrophils; also called native OSM; endogenous OSM
T3 sequence: T2 sequence

[10] = biological target: T3, Endogenous human OSM …; assay: as above; remark: listed apart in the source
[11] = biological target: T2, Human OSM; assay: cell-based or functional assay; remark: listed apart in the source
[12] = biological target: T1, Cynomolgus OSM; assay: BIAcore kinetics; remark: listed apart in the source
[13] = biological target: T2, Human OSM; assay: BIAcore kinetics; remark: listed apart in the source
[14] = biological target: T1, Cynomolgus OSM; assay: BIAcore kinetics; remark: listed apart in the source
[15] = biological target: T2, Human OSM; assay: BIAcore kinetics; remark: listed apart in the source
[16] = biological target: T2, Human OSM; assay: cell-based or functional assay; remark: listed apart in the source
[17] = biological target: T1, Cynomolgus OSM; assay: cell-based or functional assay; remark: listed apart in the source
[18] = biological target: T2, Human OSM; assay: cell-based or functional assay; remark: listed apart in the source
[19] = biological target: T1, Cynomolgus OSM; assay: cell-based or functional assay; remark: listed apart in the source
[20] = biological target: Marmoset OSM (marmoset); assay: cell-based or functional assay
[21] = biological target: T2, Human OSM; assay: cell-based or functional assay; remark: listed apart in the source
[22] = biological target: T2, Human OSM; assay: cell-based or functional assay; remark: listed apart in the source
[23] = biological target: T3, Endogenous human OSM …; assay: gp130 ELISA with endogenous neutrophil-derived human OSM; remark: listed apart in the source
[24] = biological target: T1, Cynomolgus OSM; assay: Kinexa solution phase affinity
Method: (§1) Kinexa (Sapidyne Instruments 3200) solution phase affinity was used to determine the overall affinity of anti-OSM antibody H0(huCDRH1)L1 and Humanised 15E10 (an unrelated OSM antibody) to human, cynomolgus macaque, rhesus macaque and marmoset OSM (Table 15). Humanised 15E10 was added for comparison purposes.
(§2) OSM beads were prepared either by adsorption (polymethylmethacrylate beads-PMMA) or amine coupling (NHS-activated sepharose beads). The range of OSM molecules studied necessitated the generation of beads coated with different concentrations of OSM. For the solution phase portion of the assay, a fixed concentration of antibody was incubated with a broad range of OSM concentrations and allowed to reach equilibrium by incubation at r.t. for at least 2 h before analysis proceeded. The OSM beads were then used to determine the amount of free antibody present in the solution phase samples, by means of the free antibody binding to the OSM bead matrix then detected using an appropriate secondary antibody (either anti-human or anti-mouse depending on the construct being tested) labelled with a fluorescent dye. The binding curves where fitted using the Kinexa Pro analysis software inherent to the machine. Multiple runs using varying starting concentrations of antibody were then compiled and analysed using the n-curve analysis software to give a more accurate determination of affinity.

[25] = biological target: T4, Rhesus OSM (rhesus macaque, UniProt F7GF43 26-221); assay: Kinexa solution phase affinity
T4 construct: also called rhesus macaque OSM
T4 sequence: T1 sequence
Method: as §1, §2

[26] = biological target: T5, Marmoset OSM (marmoset); assay: Kinexa solution phase affinity
T5 construct: also called Marm OSM
Method: as §1, §2

[27] = biological target: T2, Human OSM; assay: Kinexa solution phase affinity
Method: as §1, §2

[28] = biological target: T2, Human OSM; assay: cell-based or functional assay; remark: listed apart in the source
[29] = biological target: T2, Human OSM; assay: cell-based or functional assay; remark: listed apart in the source
[30] = biological target: T2, Human OSM; assay: cell-based or functional assay; remark: listed apart in the source
[31] = biological target: T2, Human OSM; assay: cell-based or functional assay; remark: listed apart in the source
[32] = biological target: T2, Human OSM; assay: cell-based or functional assay; remark: listed apart in the source
[33] = biological target: T2, Human OSM; assay: cell-based or functional assay; remark: listed apart in the source
[34] = biological target: T1, Cynomolgus OSM; assay: BIAcore kinetics, transfection supernatant
[35] = biological target: T2, Human OSM; assay: BIAcore kinetics, transfection supernatant
[36] = biological target: T1, Cynomolgus OSM; assay: cell-based or functional assay; remark: listed apart in the source
[37] = biological target: T2, Human OSM; assay: cell-based or functional assay; remark: listed apart in the source
[38] = biological target: T1, Cynomolgus OSM; assay: BIAcore kinetics, purified antibody
[39] = biological target: T2, Human OSM; assay: BIAcore kinetics, purified antibody
[40] = biological target: T2, Human OSM; assay: BIAcore, purified antibody
[41] = biological target: T2, Human OSM; assay: cell-based or functional assay; remark: listed apart in the source

B1: anti human OSM mAb S168110G08(1)1A09 (10G8), murine (antibody, V domains shown)
VH: EMQLVESGEGLVEPGGSLKLSCAASGFTFSNYAMSWVRQTPEKSLEWVATISDGGSFTYYLDNVRGRFTISRDNAKNNLYLQMSHLKSDDTAMYYCARDVGHTTFWYFDVWGSGTAVTVSS
VL: DIVLTQSPVFLVVSLGQRATISCRASKSVSAAGYNFMHWYQQKPGQPPKVLIKYASNLESGVPARFSGSGSGTDFTLNIHPVEEEDAVTYYCLHSREFPFTFGGGTNLEIK
notes: Mouse hybridoma mAb; also called 10G8/A9; 10G8.A9
B1 was tested, and the “fold increased affinity compared with 15E10” value [1] was 11 fold, the “fold increased affinity compared with 15E10” value [2] was 8 fold and the IC50 [3] was 0.017 µg/mL and 0.113 nM. The IC50 [4] was 0.044 µg/mL and 0.293 nM, the IC50 [5] was 0.01 µg/mL and 0.04 nM and the IC50 [6] was 0.06 µg/mL and 0.4 nM. The “KB cell neutralisation assay, mean IC50” value [7] was 0.034 µg/ml and 227 pM, the “KB cell neutralisation assay, mean IC50” value [8] was 0.054 µg/ml and 360 pM and the IC50 [9] was 0.009 µg/mL and 0.06 nM. The IC50 [10] was 0.009 µg/mL and 0.06 nM, the “KB cell neutralisation assay, potency compared with 15E10” value [11] was 15 fold and the Kd [12] was 0.308 nM. For the same binder, the Kd [13] was 0.55 nM, the Kd [14] was 0.308 nM and the koff [14] was 2.99e-05 s⁻¹. It also gave a kon [14] of 96900 M⁻¹ s⁻¹, a Kd [15] of 0.549 nM and a koff [15] of 6.14e-05 s⁻¹. For the same binder, the kon [15] was 112000 M⁻¹ s⁻¹, the “IC50 (read off the curve); IL-6 release from KB cells stimulated with human OSM, 25% human AB serum” value [16] was roughly 0.02 µg/mL and the “KB cell neutralisation assay, mean IC50” value [17] was 0.006 µg/ml and 40 pM. The “KB cell neutralisation assay, mean IC50” value [18] was 0.008 µg/ml and 53 pM, the “KB cell neutralisation assay, mean IC50” value [19] was 0.0017 µg/ml and 11 pM and the “KB cell neutralisation assay, mean IC50” value [20] was 0.0017 µg/ml and 11 pM. For the same binder, the “KB cell neutralisation assay, mean IC50” value [21] was 0.0026 µg/ml and 17 pM.

B2: Humanised 10G8 H0(IGHV3-23)L1 (antibody, human IgG1, kappa, V domains shown)
VH: EVQLVESGGGLVQPGGSLRLSCAASGFTFSSYAMSWVRQAPGKGLEWVATISDGGSFTYYLDNVRGRFTISRDNAKNSLYLQMNSLRAEDTAVYYCARDVGHTTFWYFDVWGRGTLVTVSS
VL: DIVMTQSPDSLAVSLGERATINCRASKSVSAAGYNFMHWYQQKPGQPPKVLIYYASNLESGVPDRFSGSGSGTDFTLTISSLQAEDVAVYYCLHSREFPFTFGGGTKVEIKR
notes: IgG1 kappa; also called H0(huCDRH1)L1; H0 (CDRH1 IGHV3_23) L1
With B2 the “IC50 (read off the curve); IL-6 release from HFLS-RA cells stimulated with 3 ng/ml human OSM” value [22] was roughly 0.1 nM, the “fold increase in potency compared with 15E10h” value [23] was roughly 12 fold and the Kd [24] was 0.053 nM. The Kd [25] was 0.122 nM, the Kd [26] was 0.021 nM and the Kd [27] was 0.038 nM. The “IC50 (read off the curve); MCP-1 release from HFLS-RA cells stimulated with 0.3 ng/ml human OSM” value [28] was roughly 0.005 nM, the “IC50 (read off the curve); MCP-1 release from IPF human lung fibroblasts stimulated with 3 ng/ml OSM” value [29] was roughly 0.03 µg/mL and the “IC50 (read off the curve); IL-6 release from IPF human lung fibroblasts stimulated with 3 ng/ml OSM” value [30] was roughly 0.01 µg/mL. The “IC50 (read off the curve); IL-6 release from HFLS-RA cells stimulated with 0.3 ng/ml human OSM” value [31] was roughly 0.006 nM, the IC50 [10] was 0.0062 µg/mL and 0.041 nM and the “IC50 (read off the curve); MCP-1 release from normal human lung fibroblasts stimulated with 3 ng/ml OSM” value [32] was roughly 0.01 µg/mL. The “IC50 (read off the curve); IL-6 release from normal human lung fibroblasts stimulated with 3 ng/ml OSM” value [33] was roughly 0.006 µg/mL, the Kd [34] was 0.31 nM and the koff [34] was 0.000109 s⁻¹. The kon [34] was 352000 M⁻¹ s⁻¹, the Kd [35] was 0.437 nM and the koff [35] was 0.000158 s⁻¹. For the same binder, the kon [35] was 361000 M⁻¹ s⁻¹, the “KB cell neutralisation assay, mean IC50” value [36] was 0.007 µg/ml and 47 pM and the “KB cell neutralisation assay, mean IC50” value [37] was 0.008 µg/ml and 53 pM. The “KB cell neutralisation assay, mean IC50” value [19] was 0.0041 µg/ml and 27 pM, the “KB cell neutralisation assay, mean IC50” value [20] was 0.0036 µg/ml and 24 pM and the “KB cell neutralisation assay, mean IC50” value [21] was 0.003 µg/ml and 20 pM. It also gave a Kd [38] of 0.199 nM, a koff [38] of 8.39e-05 s⁻¹ and a kon [38] of 423000 M⁻¹ s⁻¹. For the same binder, the Kd [39] was 0.136 nM, the koff [39] was 9.65e-05 s⁻¹ and the kon [39] was 709000 M⁻¹ s⁻¹. For the same binder, the “fold increased affinity compared with 15E10h” value [40] was 6.5 fold and the “IC50 (read off the curve); MCP-1 release from HFLS-RA cells stimulated with 3 ng/ml human OSM” value [41] was roughly 0.1 nM.
